Experimental data: article PMC3098871, “High Throughput Determination of TGFβ1/SMAD3 Targets in A549 Lung Epithelial Cells”

Molecular target: SMAD3 (UniProt P84022 1-425)
Assay: EMSA; poly(dI-dC) 0.25 mg/mL; two complexes, partially abolished by unlabeled probe (40 and 200 ng); 20% glycerol, 5 mM MgCl2, 2.5 mM EDTA, 25 mM DTT, 200 mM NaCl, 50 mM Tris-HCl pH 7.6, 0.25 mg/mL poly(dI-dC), 20 min at room temperature; 6% native PAGE
Conditions: protein: commercial; label: 5'-Cy5 on strand 1; blunt

Chain of SMAD3 (P84022 whole entry): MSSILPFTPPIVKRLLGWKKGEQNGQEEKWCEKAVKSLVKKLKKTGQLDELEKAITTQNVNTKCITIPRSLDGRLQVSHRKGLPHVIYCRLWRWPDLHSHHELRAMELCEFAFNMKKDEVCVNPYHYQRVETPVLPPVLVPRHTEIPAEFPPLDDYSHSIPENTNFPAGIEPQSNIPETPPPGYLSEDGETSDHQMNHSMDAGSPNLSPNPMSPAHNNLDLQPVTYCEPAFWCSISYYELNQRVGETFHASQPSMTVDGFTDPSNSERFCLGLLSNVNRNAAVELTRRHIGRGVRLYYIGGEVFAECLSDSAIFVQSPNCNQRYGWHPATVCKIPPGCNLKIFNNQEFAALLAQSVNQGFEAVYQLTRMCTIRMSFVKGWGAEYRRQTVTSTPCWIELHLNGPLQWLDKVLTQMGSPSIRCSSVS

B1: FOXA2 promoter probe (-42 to -19) (dsDNA)
DNA 1: GATTGCTGGTCGTTTGTTGTGGCT
DNA 2: AGCCACAACAAACGACCAGCAATC
binding result: binds
